Conditions in all cases: both partners purified
Assay [1] addresses T1, S52P transthyretin (S52P TTR), full-length protomer (residues 1–127) (UniProt P02766 21-147, S52P). Description: native MS; equimolar 50 uM light wild-type and heavy S52P TTR in PBS 3 days at 4°C, then overnight with trypsin at 37°C; each tetramer species isolated and activated (tandem MS, Q-TOFII, 40 V).
For assay [2], the target named is wild-type transthyretin (wild-type TTR) (UniProt P02766 21-147). Described as above.
The target in assay [3] is T1, S52P transthyretin (S52P TTR), …. Nature of the assay: native MS; TTR (S52P with or without limited trypsin proteolysis; wild type) in 200 mM ammonium acetate pH 7.4, nano-electrospray; 13+ charge state of the tetramer selected, acceleration voltage ramped 20 to 70 V (collision-induced dissociation).

B1: residue 49–127 fragment of S52P TTR (domain or fragment)
chain: not shown
notes: In the hybrid tetramer experiment the fragment comes from the 13C,15N-labelled S52P TTR; source: limited trypsin proteolysis of recombinant S52P TTR (cleavage at Lys48)
For the molecule B1, the binding result in assay [1] and in assay [2] was “binds” in each case.

B2: tryptic peptide CPLMVK (peptide)
peptide: CPLMVK
notes: tryptic peptide seen as adduct on the S52P TTR tetramer; source: trypsin digestion of recombinant S52P TTR
As to B2, in assay [3], the binding result is listed as “binds”.

Source of the values: article PMC4604687, “A novel mechano-enzymatic cleavage mechanism underlies transthyretin amyloidogenesis” (EMBO Molecular Medicine, 2015).
